According to article PMC9709975, “Chromatin-associated microprocessor assembly is regulated by the U1 snRNP auxiliary protein PRP40” (The Plant Cell, 2022):

Biological target: T1, PRE-MRNA PROCESSING PROTEIN 40b (AtPRP40b), recombinant (Arabidopsis thaliana, UniProt F4JCC1 1-992)
T1 construct: AtPRP40b, Arabidopsis thaliana U1 snRNP auxiliary protein; Made as MBP-6xHis-AtPRP40b from a pMal-derived plasmid; MBP cut off with TEV protease; Detected with anti-PRP40b; source: E. coli BL21-CodonPlus(DE3)-RIL, purified (Ni-NTA, TEV cleavage, second Ni-NTA, size exclusion chromatography); not shown: MBP, N-terminal, cleaved
T1 sequence (looked up): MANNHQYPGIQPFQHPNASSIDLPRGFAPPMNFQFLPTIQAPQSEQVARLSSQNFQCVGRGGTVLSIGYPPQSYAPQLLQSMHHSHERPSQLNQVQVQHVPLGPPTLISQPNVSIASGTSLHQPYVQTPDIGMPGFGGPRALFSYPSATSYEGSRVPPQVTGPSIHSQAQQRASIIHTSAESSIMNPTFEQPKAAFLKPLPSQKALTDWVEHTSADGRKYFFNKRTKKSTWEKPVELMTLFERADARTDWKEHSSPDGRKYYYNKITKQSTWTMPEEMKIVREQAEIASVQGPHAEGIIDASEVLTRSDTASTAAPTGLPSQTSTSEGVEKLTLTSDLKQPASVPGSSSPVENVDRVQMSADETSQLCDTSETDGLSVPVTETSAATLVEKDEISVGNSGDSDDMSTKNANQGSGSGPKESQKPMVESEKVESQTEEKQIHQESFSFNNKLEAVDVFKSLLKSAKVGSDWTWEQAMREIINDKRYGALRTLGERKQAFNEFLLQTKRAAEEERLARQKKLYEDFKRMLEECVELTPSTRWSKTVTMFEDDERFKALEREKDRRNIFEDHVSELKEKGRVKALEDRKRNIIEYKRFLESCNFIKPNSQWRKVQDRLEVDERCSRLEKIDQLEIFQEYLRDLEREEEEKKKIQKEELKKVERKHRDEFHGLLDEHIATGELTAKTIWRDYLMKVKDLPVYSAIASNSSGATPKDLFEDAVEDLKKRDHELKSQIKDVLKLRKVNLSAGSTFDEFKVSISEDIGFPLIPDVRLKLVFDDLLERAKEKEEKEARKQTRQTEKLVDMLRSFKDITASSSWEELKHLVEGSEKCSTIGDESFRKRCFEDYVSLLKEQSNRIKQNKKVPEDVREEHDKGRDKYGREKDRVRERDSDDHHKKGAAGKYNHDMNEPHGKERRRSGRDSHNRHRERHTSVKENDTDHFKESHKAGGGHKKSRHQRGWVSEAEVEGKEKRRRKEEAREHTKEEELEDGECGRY
Assay: pull-down; 2 µg biotinylated CTD peptide on streptavidin paramagnetic particles; 2 µg of SE variant and AtPRP40b together; 1.5 h at 4°C in PBS pH 8.3, 5% glycerol, 1 mM DTT, 0.1% NP-40; five washes, immunoblot
Conditions: both partners purified

binding result: binds
B1: SERRATE (SE), full length, recombinant (natural protein, Arabidopsis thaliana, UniProt Q9ZVD0 1-720, looked up)
chain: MADVNLPPSDSVDNRLPEKSTSSSPPPPPPSSSLPQQEQEQDQQQLPLRRERDSRERRDERDIERPPPNRRERDRSPLPPPRRDYKRRPSLSPPPPYRDRRHSPPQRRSPPQKRYRRDDNGYDGRRGSPRGGYGPPDRRFGYDHGGGYDREMGGRPGYGDERPHGRFMGRYQDWEGGRGGYGDASNSGNPQRDGLMSYKQFIQELEDDILPSEAERRYQEYKSEYITTQKRAFFNTHKEEDWLKNKYHPTNLLSVIERRNDLAQKVAKDFLLDLQSGTLDLGPAVTALNKSGRTSEPNSEDEAAGVGKRKRHGMGGAKENELLSAAPKAPSFTSDPKRILTDVEQTQALVRKLDSEKKIEENVLQGSETEKSGREKLHSGSTGPVVIIRGLTSVKGLEGVELLDTLVTYLWRVHGLDYYGKVETNEAKGLRHVRAEGKVSDAKGDENESKFDSHWQERLKGQDPLEVMAAKEKIDAAATEALDPHVRKIRDEKYGWKYGCGAKGCTKLFHAAEFVYKHLKLKHTELVTELTTKVREELYFQNYMNDPNAPGGQPATQQSGPRDRPIRRKPSMENRLRDDRGGRRERDGRANGNDRNDRSEDQQRGDNDGGNPGEVGYDAFGGQGGVHVPPFLSDINPPPMLMPVPGAGPLGPFVPAPPEVAMQMFRDPSGPNPPFEGSGRGGPAPFLLSPAFRQDPRRLRSYQDLDAPEEEVTVIDYRSL
notes: SERRATE, Arabidopsis thaliana, core component of the plant microprocessor; full length (720 residues by the printed deletion Δ681-720); Made as MBP-6xHis-SE from a pMal-derived plasmid; MBP cut off with TEV protease; source: E. coli BL21-CodonPlus(DE3)-RIL, purified (Ni-NTA, TEV cleavage, second Ni-NTA, size exclusion chromatography); not shown: MBP, N-terminal, cleaved
